In the supplement of paper PMC10065799, “High-throughput profiling of sequence recognition by tyrosine kinases and SH2 domains using bacterial peptide display” (eLife, 2023):

Key:
AncSZ = assay: phosphorylation enrichment, bacterial display (enrichment ratio); higher = better substrate or ligand; peptides without Tyr show the background
EPHB1 = EPHB1 (UniProt P54762); assay: as above
EPHB2 = EPHB2 (UniProt P29323); assay: as above
FGFR1 = FGFR1 (UniProt P11362); assay: as above
FGFR3 = FGFR3 (UniProt P22607); assay: as above
Fer (mouse) = assay: as above
Fes = Fes (UniProt P07332); assay: as above
Fyn = Fyn (UniProt P06241); assay: as above
Hck = Hck (UniProt P08631); assay: as above
Jak2 = Jak2 (UniProt O60674); assay: as above
MERTK = MERTK (UniProt Q12866); assay: as above
c-Abl (mouse) = assay: as above
c-Src = assay: as above
Grb2 SH2 = Grb2 SH2 (UniProt P62993); assay: SH2 binding enrichment of the phosphorylated peptide, bacterial display (enrichment ratio); higher = better substrate or ligand; peptides without Tyr show the background
SHP2-C SH2 = assay: as above
c-Src SH2 = assay: as above
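Wherever SH2 binding enrichment of the phosphorylated peptide, bacterial display is given: peptide library displayed on the E. coli surface as eCPX fusions, selected cells deep-sequenced, score is each peptide's frequency after selection divided by its frequency in the input.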
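Wherever phosphorylation enrichment, bacterial display is given: 11-residue human phosphosite peptides and single-mutation variants displayed on the E. coli surface, counted by deep sequencing, each peptide's frequency after selection divided by its frequency in the unselected input library; frequency after pTyr selection over input frequency; kinase dosed for 20-30% of maximal phosphorylation in three min.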

Chain of MERTK (Q12866 whole entry, looked up): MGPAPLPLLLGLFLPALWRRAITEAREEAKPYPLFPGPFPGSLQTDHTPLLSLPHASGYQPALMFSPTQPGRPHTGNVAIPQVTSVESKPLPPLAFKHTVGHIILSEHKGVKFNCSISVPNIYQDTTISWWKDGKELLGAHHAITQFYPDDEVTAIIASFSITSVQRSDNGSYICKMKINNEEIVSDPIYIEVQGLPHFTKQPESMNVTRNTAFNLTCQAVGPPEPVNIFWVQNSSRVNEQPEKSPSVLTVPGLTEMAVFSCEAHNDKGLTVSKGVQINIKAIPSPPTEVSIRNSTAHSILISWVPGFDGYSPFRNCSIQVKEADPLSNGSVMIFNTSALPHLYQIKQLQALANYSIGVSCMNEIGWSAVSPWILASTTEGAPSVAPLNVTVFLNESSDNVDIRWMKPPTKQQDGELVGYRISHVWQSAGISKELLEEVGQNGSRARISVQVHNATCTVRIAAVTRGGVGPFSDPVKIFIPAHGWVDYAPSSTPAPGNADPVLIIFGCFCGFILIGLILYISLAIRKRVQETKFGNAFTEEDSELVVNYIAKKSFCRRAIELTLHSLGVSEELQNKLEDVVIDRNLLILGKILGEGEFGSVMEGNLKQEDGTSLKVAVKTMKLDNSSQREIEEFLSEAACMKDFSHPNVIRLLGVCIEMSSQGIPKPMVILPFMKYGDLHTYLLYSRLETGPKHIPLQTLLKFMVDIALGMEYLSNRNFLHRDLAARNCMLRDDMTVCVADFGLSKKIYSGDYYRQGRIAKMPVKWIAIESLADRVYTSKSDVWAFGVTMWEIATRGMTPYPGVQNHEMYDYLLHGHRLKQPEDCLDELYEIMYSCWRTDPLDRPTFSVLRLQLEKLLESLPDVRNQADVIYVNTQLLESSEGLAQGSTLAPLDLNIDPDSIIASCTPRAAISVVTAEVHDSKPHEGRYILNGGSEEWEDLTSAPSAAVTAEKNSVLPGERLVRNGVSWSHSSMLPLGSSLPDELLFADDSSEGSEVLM
Chain of FGFR1 (P11362 whole entry, looked up): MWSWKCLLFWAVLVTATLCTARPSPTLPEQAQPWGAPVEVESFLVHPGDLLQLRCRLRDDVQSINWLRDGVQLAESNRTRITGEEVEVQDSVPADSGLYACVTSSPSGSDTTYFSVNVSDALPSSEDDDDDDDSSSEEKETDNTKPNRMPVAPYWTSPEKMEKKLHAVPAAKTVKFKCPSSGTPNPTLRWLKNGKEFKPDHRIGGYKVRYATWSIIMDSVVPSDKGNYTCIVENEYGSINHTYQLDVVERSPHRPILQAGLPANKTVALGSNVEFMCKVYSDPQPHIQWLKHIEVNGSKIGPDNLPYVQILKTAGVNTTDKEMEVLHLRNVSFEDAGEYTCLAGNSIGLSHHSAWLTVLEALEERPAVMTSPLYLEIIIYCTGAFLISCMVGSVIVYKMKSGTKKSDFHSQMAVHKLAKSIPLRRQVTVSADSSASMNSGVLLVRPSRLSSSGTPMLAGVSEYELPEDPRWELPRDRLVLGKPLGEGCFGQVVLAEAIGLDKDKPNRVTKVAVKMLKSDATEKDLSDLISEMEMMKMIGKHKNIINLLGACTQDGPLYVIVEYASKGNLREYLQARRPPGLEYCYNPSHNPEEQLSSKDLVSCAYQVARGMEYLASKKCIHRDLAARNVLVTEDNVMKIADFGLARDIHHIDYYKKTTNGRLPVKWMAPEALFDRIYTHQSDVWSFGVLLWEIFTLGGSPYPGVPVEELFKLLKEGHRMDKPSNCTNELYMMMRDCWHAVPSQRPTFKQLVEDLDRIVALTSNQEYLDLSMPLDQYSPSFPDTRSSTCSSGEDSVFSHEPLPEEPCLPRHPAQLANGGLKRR
Chain of FGFR3 (P22607 whole entry, looked up): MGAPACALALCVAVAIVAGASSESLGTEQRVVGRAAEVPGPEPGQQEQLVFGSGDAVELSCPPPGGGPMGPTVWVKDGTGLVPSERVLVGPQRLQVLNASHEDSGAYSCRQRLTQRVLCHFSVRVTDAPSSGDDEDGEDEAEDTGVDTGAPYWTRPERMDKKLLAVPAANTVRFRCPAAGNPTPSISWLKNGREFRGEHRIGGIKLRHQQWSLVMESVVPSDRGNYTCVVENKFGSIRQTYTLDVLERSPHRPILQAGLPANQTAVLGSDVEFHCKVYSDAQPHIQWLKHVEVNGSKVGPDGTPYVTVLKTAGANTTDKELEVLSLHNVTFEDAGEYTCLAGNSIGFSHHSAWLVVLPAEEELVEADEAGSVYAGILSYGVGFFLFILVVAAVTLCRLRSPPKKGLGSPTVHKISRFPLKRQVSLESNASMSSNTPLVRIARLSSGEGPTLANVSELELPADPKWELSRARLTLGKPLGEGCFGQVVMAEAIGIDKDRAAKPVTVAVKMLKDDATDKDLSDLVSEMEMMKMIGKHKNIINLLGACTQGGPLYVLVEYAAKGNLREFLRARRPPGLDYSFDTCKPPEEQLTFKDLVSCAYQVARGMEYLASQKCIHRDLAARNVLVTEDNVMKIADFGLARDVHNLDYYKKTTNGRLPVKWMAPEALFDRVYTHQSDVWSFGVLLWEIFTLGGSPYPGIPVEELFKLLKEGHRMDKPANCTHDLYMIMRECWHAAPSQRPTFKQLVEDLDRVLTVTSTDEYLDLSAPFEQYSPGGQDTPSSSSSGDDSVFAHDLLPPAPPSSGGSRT
Chain of Jak2 (O60674 whole entry, looked up): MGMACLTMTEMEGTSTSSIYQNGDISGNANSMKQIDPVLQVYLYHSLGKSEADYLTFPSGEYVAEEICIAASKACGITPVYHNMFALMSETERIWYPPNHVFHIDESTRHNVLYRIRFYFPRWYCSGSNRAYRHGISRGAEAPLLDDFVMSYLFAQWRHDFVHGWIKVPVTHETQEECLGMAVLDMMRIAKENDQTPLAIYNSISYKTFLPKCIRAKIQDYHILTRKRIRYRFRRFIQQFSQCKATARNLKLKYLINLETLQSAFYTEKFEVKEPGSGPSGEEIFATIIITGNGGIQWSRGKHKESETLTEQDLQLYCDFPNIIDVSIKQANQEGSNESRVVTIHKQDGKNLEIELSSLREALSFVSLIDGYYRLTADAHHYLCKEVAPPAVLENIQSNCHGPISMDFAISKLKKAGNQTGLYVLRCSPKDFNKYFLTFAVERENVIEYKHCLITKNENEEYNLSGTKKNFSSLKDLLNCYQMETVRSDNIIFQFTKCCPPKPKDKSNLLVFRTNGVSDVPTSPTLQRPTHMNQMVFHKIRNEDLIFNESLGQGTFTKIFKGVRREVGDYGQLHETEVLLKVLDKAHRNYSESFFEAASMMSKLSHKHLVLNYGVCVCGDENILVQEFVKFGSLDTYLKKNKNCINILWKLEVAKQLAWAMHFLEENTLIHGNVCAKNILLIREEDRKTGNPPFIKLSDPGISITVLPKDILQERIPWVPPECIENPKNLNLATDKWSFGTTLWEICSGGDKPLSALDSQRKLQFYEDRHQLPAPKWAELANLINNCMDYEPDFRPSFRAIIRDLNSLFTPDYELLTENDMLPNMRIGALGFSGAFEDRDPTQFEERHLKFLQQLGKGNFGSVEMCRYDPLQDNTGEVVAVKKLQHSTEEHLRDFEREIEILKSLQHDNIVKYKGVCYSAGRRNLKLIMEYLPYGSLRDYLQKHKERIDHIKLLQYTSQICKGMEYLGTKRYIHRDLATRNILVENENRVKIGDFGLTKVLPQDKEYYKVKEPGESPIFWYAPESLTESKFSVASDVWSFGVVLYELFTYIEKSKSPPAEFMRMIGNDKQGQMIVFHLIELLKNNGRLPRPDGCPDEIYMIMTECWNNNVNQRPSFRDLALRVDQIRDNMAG
Chain of EPHB2 (P29323 whole entry, looked up): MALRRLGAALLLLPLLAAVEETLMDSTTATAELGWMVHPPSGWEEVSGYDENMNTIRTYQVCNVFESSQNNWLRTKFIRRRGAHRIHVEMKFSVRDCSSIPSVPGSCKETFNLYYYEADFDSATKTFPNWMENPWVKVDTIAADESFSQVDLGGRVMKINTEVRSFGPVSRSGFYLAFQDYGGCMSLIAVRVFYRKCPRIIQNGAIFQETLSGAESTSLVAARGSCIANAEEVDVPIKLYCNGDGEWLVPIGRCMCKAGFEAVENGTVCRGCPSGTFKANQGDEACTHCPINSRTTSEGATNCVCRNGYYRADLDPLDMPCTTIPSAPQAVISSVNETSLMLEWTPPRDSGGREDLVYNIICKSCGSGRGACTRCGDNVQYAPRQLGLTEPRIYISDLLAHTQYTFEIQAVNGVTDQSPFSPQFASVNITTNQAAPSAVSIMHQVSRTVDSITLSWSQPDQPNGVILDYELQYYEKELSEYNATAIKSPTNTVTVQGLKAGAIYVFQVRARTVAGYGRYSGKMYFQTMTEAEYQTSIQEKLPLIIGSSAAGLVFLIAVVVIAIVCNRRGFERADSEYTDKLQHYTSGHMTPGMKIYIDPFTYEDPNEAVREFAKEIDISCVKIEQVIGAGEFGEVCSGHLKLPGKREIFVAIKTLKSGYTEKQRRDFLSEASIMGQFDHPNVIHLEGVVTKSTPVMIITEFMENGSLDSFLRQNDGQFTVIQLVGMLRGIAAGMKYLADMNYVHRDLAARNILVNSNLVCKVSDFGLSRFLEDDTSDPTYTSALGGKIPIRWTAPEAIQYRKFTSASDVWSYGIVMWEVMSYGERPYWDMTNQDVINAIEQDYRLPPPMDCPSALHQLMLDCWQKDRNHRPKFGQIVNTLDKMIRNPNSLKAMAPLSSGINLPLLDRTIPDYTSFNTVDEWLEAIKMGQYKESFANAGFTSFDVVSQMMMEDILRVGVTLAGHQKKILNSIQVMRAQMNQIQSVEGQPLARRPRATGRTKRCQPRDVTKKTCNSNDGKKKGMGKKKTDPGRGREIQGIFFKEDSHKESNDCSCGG

Row | Sequence | SH2 binding enrichment (Grb2 SH2) | SH2 binding enrichment (SHP2-C SH2) | SH2 binding enrichment (c-Src SH2) | phosphorylation enrichment (AncSZ) | phosphorylation enrichment (EPHB1) | phosphorylation enrichment (EPHB2) | phosphorylation enrichment (FGFR1) | phosphorylation enrichment (FGFR3) | phosphorylation enrichment (Fer (mouse)) | phosphorylation enrichment (Fes) | phosphorylation enrichment (Fyn) | phosphorylation enrichment (Hck) | phosphorylation enrichment (Jak2) | phosphorylation enrichment (MERTK) | phosphorylation enrichment (c-Abl (mouse)) | phosphorylation enrichment (c-Src)
1 | NIQKKYYRAIL [CHD7_Y1217] | 1.09 | 1.09 | 0.898 | 0.502 | 0.346 | 0.375 | 0.472 | 0.595 | 0.533 | 0.543 | 0.443 | 0.355 | 0.494 | 0.345 | 0.563 | 0.371
2 | FLEKFYKFGCR [NNMT_Y25_S29C_YF] | 1.11 | 1.22 | 0.781 | 0.934 | 0.522 | 0.506 | 0.631 | 0.696 | 0.546 | 1.12 | 0.512 | 0.443 | 0.961 | 0.432 | 0.884 | 0.446
3 | AEVIWYKGDEE | 1.11 | 0.531 | 0.446 | 1.26 | 0.41 | 0.483 | 0.359 | 0.636 | 0.342 | 1.07 | 0.369 | 0.414 | 1.08 | 0.343 | 0.616 | 0.303
4 | LAVVDYMRRQK [ATM_Y1915] | 0.675 | 0.652 | 0.531 | 0.674 | 0.285 | 0.337 | 0.373 | 0.437 | 0.374 | 0.655 | 0.413 | 0.453 | 0.605 | 0.513 | 0.604 | 0.553
5 | QRIYQYIQSRF [DYRK1B_Y273] | 1.26 | 1.58 | 2.05 | 3.1 | 6.1 | 1.63 | 1.25 | 2 | 5.21 | 2.48 | 1.68 | 3.87 | 1.82 | 6.41 | 3.62 | 3.17
6 | WFKKFYDANCD [MAPRE2_Y158_Y162C] | 0.848 | 0.78 | 0.513 | 1 | 0.77 | 0.426 | 0.472 | 0.707 | 0.453 | 1.21 | 0.46 | 0.475 | 0.948 | 0.35 | 0.749 | 0.397
7 | YPKARYHWLVL [APTX_Y214] | 1.54 | 1.46 | 1.2 | 0.95 | 0.507 | 0.552 | 0.582 | 0.67 | 0.539 | 1.08 | 0.429 | 0.493 | 0.941 | 0.482 | 0.707 | 0.383
8 | EFGRRYGFSRQ [CCDC93_Y209_YF] | 0.686 | 0.508 | 0.546 | 0.621 | 0.427 | 0.416 | 0.43 | 0.432 | 0.338 | 0.634 | 0.449 | 0.422 | 0.607 | 0.499 | 1.42 | 0.492
9 | SRKSEYLLPVA [MYLK_Y611] | 0.789 | 0.786 | 0.418 | 0.748 | 0.504 | 0.512 | 0.392 | 0.569 | 0.44 | 0.602 | 0.619 | 0.465 | 0.509 | 0.413 | 0.93 | 0.526
10 | RLVVVYPWTQR [HBB_Y36_L33V] | 1.45 | 1.5 | 0.954 | 1.07 | 0.575 | 1.23 | 0.491 | 1.1 | 0.652 | 1.17 | 0.771 | 0.646 | 1.2 | 0.727 | 0.846 | 0.709
11 | EKGSNYCLCRT [ASIC2_Y357_D354G] | 0.947 | 0.806 | 0.645 | 0.732 | 0.47 | 0.45 | 0.469 | 0.497 | 0.378 | 0.607 | 0.504 | 0.349 | 0.572 | 0.458 | 0.56 | 0.393
12 | FASAEYQEALS [GALNS_Y461] | 0.734 | 0.598 | 0.569 | 0.949 | 0.454 | 0.466 | 0.482 | 0.618 | 0.369 | 0.858 | 0.454 | 0.481 | 0.759 | 0.348 | 0.505 | 0.485
13 | TKHTFYKQPMF [GBA_Y451_D448H] | 1.04 | 1.13 | 0.941 | 1 | 0.429 | 0.558 | 0.539 | 0.482 | 0.44 | 0.769 | 0.478 | 0.475 | 0.49 | 0.441 | 0.522 | 0.377
14 | QPRDIYHQTWA [GBA_Y244_G241R] | 0.945 | 0.942 | 0.709 | 0.821 | 0.574 | 0.627 | 2.91 | 1.38 | 0.526 | 0.913 | 1.77 | 2.72 | 0.787 | 3.54 | 1.15 | 1.99
15 | DISEPYKVFRI [IRF8_Y107_YF] | 0.826 | 0.497 | 0.42 | 1.11 | 0.543 | 0.529 | 0.552 | 0.618 | 0.565 | 1.17 | 0.628 | 0.563 | 0.78 | 0.582 | 1 | 0.628
16 | ERCAQYKKDVA [ALDOA_Y138_G142V] | 1.07 | 0.976 | 0.585 | 0.726 | 0.527 | 0.607 | 0.579 | 0.604 | 0.45 | 1.05 | 0.596 | 0.525 | 0.65 | 0.385 | 0.624 | 0.491
17 | EVNETYVPKEF [ALB_Y521_D518N] | 0.759 | 0.501 | 0.404 | 1.19 | 0.584 | 0.543 | 0.524 | 0.796 | 0.518 | 1.26 | 0.564 | 0.534 | 1.19 | 0.477 | 0.851 | 0.523
18 | ATHRGYDSDNP [MMUT_Y146] | 0.998 | 0.533 | 0.536 | 0.586 | 0.342 | 0.444 | 0.377 | 0.472 | 0.418 | 0.731 | 0.404 | 0.471 | 0.523 | 0.363 | 0.548 | 0.365
19 | IYRASYYRKGG [ALK_Y1282] | 0.825 | 0.702 | 0.528 | 0.615 | 0.419 | 0.481 | 0.414 | 0.403 | 0.45 | 0.622 | 0.513 | 0.476 | 0.753 | 0.621 | 0.676 | 0.557
20 | SLNAVYPRAGS [OAS3_Y376] | 0.872 | 0.509 | 0.452 | 0.451 | 0.306 | 0.323 | 0.384 | 0.357 | 0.314 | 0.481 | 0.331 | 0.368 | 0.462 | 0.378 | 0.507 | 0.368
21 | QLPATCMNLGP [MST1R_Y1360_Y1360C] | 0.822 | 0.439 | 0.539 | 1.29 | 0.668 | 0.683 | 0.615 | 0.913 | 0.621 | 1.2 | 0.817 | 0.554 | 1.14 | 0.533 | 1.06 | 0.632
22 | VKFGAYINDFK [GLB1_Y488_N484K_YF] | 4.55 | 1.06 | 1.3 | 0.839 | 0.596 | 0.572 | 0.466 | 0.879 | 0.406 | 1.02 | 0.431 | 0.523 | 1.05 | 0.412 | 0.737 | 0.468
23 | VSSIPYGQPKQ [NEU1_Y251_G248S] | 0.79 | 0.575 | 0.339 | 0.549 | 0.555 | 0.345 | 0.39 | 0.41 | 0.324 | 0.605 | 0.338 | 0.493 | 0.844 | 0.425 | 0.464 | 0.447

Now from value to sequence, other results behind:

Row | SH2 binding enrichment (Grb2 SH2) | SH2 binding enrichment (SHP2-C SH2) | SH2 binding enrichment (c-Src SH2) | Sequence | phosphorylation enrichment (AncSZ) | phosphorylation enrichment (EPHB1) | phosphorylation enrichment (EPHB2) | phosphorylation enrichment (FGFR1) | phosphorylation enrichment (FGFR3) | phosphorylation enrichment (Fer (mouse)) | phosphorylation enrichment (Fes) | phosphorylation enrichment (Fyn) | phosphorylation enrichment (Hck) | phosphorylation enrichment (Jak2) | phosphorylation enrichment (MERTK) | phosphorylation enrichment (c-Abl (mouse)) | phosphorylation enrichment (c-Src)
24 | 0.9 | 0.579 | 0.712 | SDGHEYIYVDR [PDGFRB_Y579_P584R] | 1.33 | 0.663 | 0.645 | 2.04 | 1.43 | 0.514 | 0.995 | 1.11 | 1.12 | 1.01 | 0.514 | 0.513 | 1.6
25 | 0.897 | 0.77 | 0.634 | EVQKNYEHLFK [PAM16_Y77] | 0.706 | 0.57 | 0.479 | 0.4 | 0.517 | 0.436 | 0.715 | 0.398 | 0.438 | 0.8 | 0.318 | 0.632 | 0.359
26 | 0.754 | 0.574 | 0.567 | AASTDYNKRGD [PDHA1_Y242_Y243N] | 0.578 | 0.453 | 0.313 | 0.452 | 0.451 | 0.386 | 0.505 | 0.37 | 0.509 | 0.515 | 0.453 | 0.67 | 0.618
27 | 1.01 | 0.548 | 0.353 | FGSSSYRGAGG [RPA2_Y14_G15R_YF] | 0.64 | 0.431 | 0.551 | 0.551 | 0.584 | 0.409 | 0.876 | 0.494 | 0.523 | 0.692 | 0.568 | 0.998 | 0.659
28 | 0.977 | 0.649 | 0.668 | AGEGSYALDSE [PES1_Y265_T264S] | 1.24 | 0.461 | 0.629 | 0.644 | 0.719 | 0.608 | 1.19 | 0.946 | 0.747 | 1.05 | 0.568 | 0.64 | 0.538
29 | 1.31 | 0.889 | 1.21 | GGYTRYCDGKK [PROS1_Y266_C265R] | 0.649 | 0.347 | 0.386 | 0.37 | 0.436 | 0.357 | 0.585 | 0.365 | 0.446 | 0.759 | 0.4 | 0.528 | 0.338
30 | 1.22 | 1.15 | 0.874 | NPQKSYLIRLY [WAS_Y83_F84L] | 0.827 | 0.603 | 0.49 | 0.471 | 0.65 | 0.395 | 0.989 | 0.408 | 0.47 | 0.74 | 0.388 | 0.522 | 0.374
31 | 0.913 | 1.01 | 0.635 | HILRVYGGVLP [PCNX4_Y999] | 1.07 | 0.591 | 0.676 | 0.755 | 1 | 0.532 | 1.12 | 0.699 | 1.01 | 0.765 | 0.444 | 0.874 | 0.588
32 | 0.852 | 1.05 | 0.438 | EAMSDYKKQLR [SPATA18_Y229] | 0.594 | 0.418 | 0.413 | 0.378 | 0.605 | 0.405 | 0.651 | 0.316 | 0.383 | 0.563 | 0.393 | 0.442 | 0.452
33 | 1.1 | 0.82 | 0.519 | RGRDSYGGPPR [RBMX_Y190] | 0.744 | 0.427 | 0.613 | 0.604 | 0.563 | 0.589 | 0.734 | 0.721 | 0.64 | 0.557 | 0.632 | 0.934 | 0.8
